Measured values from patent US20250320312A1 (OXITOPE PHARMA B V, published 2025).

T1: Peptide 8: Biotin-AEAAAKEAAAKEAAAKEAAAKAAA-Tyr-acid (N-terminal biotin; C-terminal acid)
T1 construct: Control peptide without PC
T1 peptide: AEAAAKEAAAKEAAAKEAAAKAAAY

T2: Peptide 4: Biotin-AGGGGSGGGGSGGGGSAAA-Tyr-acid (N-terminal biotin; C-terminal acid)
T2 construct: Control peptide without PC
T2 peptide: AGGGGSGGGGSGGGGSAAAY

T3: Peptide 4: Biotin-AGGGGSGGGGSGGGGSAAA-Tyr-acid (N-terminal biotin; C-terminal acid; no PC)
T3 construct: control peptide without PC
T3 peptide: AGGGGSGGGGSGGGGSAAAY

T4: Peptide 8: Biotin-AEAAAKEAAAKEAAAKEAAAKAAA-Tyr-acid (N-terminal biotin; C-terminal acid; no PC)
T4 construct: control peptide without PC
T4 peptide: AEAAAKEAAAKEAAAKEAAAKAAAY


Assays:
Assay in all cases: scFv ELISA
[1] = target: T1, Peptide 8: …
In short: (§1)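 Bound scFv was read as OD450 after HRP–anti-V5 detection, TMB development and HCl stop. PPE with BSA was incubated 1 h at RT on BSA-blocked wells coated overnight at 4° C. with peptide, or on streptavidin wells loaded 1 h with biotinylated PC-peptides at 1 μg/mL.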

[2] = target: T2, Peptide 4: …
In short: as §1

[3] = target: Peptide 5: Biotin-…-[Tyr(PC)]-acid
[4] = target: Peptide 1: Biotin-…-[Tyr(PC)]-acid
BSA = BSA (UniProt P02769)
[5] = target: T3, Peptide 4: …
In short: as §1

[6] = target: T4, Peptide 8: …
In short: as §1

Chain of BSA (P02769 25-607 limits assumed): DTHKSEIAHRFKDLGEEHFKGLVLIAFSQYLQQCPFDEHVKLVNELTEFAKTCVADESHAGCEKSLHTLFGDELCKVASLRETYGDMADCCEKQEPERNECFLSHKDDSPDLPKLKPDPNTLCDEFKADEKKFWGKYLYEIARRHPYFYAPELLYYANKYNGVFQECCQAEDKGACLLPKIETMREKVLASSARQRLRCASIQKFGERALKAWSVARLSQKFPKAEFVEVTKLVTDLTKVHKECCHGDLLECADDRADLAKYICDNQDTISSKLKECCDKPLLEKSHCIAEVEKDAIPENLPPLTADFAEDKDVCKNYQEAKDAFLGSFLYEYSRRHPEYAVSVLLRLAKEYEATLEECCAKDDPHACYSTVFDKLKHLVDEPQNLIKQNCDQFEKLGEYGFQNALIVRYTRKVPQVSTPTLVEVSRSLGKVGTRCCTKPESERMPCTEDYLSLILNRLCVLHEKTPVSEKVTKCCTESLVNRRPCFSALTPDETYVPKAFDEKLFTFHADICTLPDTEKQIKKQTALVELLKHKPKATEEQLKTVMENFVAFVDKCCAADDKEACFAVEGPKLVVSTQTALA

OD450 [1] [OD450]	OD450 [2] [OD450]	OD450 [3] [OD450]	OD450 [4] [OD450]	OD450 (BSA) [OD450]	OD450 [5] [OD450]	OD450 [6] [OD450]	Binder
0.07	0.07	0.85	0.56	0.09			PcOxP_DB04_F01 (scFv, V domains shown, scFv in periplasmic extract) VH: EVQLLESGGGLVQPGGSLRLSCAASGFTFSPFYMEWVRQAPGKGLEWVAASRNKANDYTTEYADSVKGRFTISRDNSKNTLYLQMNSLRAEDTAVYYCARDYYGSSYWYFDVWGQGTLVTVSS VL: DIVMTQSPDSLAVSLGERATINCTASESLYSSKHKVHYLAWYQQKPGQPPKLLIYGASNRYIGVPDRFSGSGSGTDFTLTISSLQAEDVAVYYCAQFYEYPLTFGGGTKVEIK
		1.06	0.66	0.1	0.06	0.06	PcOxP_DB04_B06 (scFv, V domains shown, scFv in periplasmic extract) VH: EVQLLESGGGLVQPGGSLRLSCAASGFTFSDAYMEWVRQAPGKGLEWVAASRNKANDYTTEYADSVKGRFTISRDNSKNTLYLQMNSLRAEDTAVYYCARDYYGSSYWYFDVWGQGTLVTVSS VL: DIQMTQSPSSLSASVGDRVTITCTASESLYSSKHKVHYLAWYQQKPGKAPKLLIYGASNRYIGVPSRFSGSGSGTDFTLTISSLQPEDFATYYCAQFYDYPLTFGGGTKVEIK
		1.21	1.8	0.11	0.05	0.05	PcOxP_DB03_G10 (scFv, V domains shown, scFv in periplasmic extract) VH: EVQLLESGGGLVQPGGSLRLSCAASGFTFSDAYMEWVRQAPGKGLEWVAASRNKANDYTTEYADSVKGRFTISRDNSKNTLYLQMNSLRAEDTAVYYCARDYYGSSYWYFDVWGQGTLVTVSS VL: DIQMTQSPSSLSASVGDRVTITCTASESLYSSKHKVHYLAWYQQKPGKAPKLLIYGASNRQIGVPSRFSGSGSGTDFTLTISSLQPEDFATYYCAQFYTYPLTFGGGTKVEIK
0.09	0.07	1.39	0.63	0.09			PcOxP_DB04_G01 (scFv, V domains shown, scFv in periplasmic extract) VH: EVQLLESGGGLVQPGGSLRLSCAASGFTFSDYYMEWVRQAPGKGLEWVAASRNKWNDYTTEYADSVKGRFTISRDNSKNTLYLQMNSLRAEDTAVYYCARDYYLSSYWYFDVWGQGTLVTVSS VL: DIVMTQSPDSLAVSLGERATINCKASQSVLSSKNNVNYLAWYQQKPGQPPKLLIYGASNRYIGVPDRFSGSGSGTDFTLTISSLQAEDVAVYYCAQFYQYPLTFGGGTKVEIK
0.06	0.05	1.08	0.48	0.08			PcOxP_DB04_G09 (scFv, V domains shown, scFv in periplasmic extract) VH: EVQLLESGGGLVQPGGSLRLSCAASGNTFSDFYMEWVRQAPGKGLEWVAASRNKWNDYTTEYADSVKGRFTISRDNSKNTLYLQMNSLRAEDTAVYYCARDYYGSSYWYFDVWGQGTLVTVSS VL: DIVMTQSPDSLAVSLGERATINCTASESLYSSKHKVHYLAWYQQKPGQPPKLLIYGASNRYIGVPDRFSGSGSGTDFTLTISSLQAEDVAVYYCAQFYSYPLTFGGGTKVEIK
0.05	0.05	1.67	1.39	0.07			PcOxP_DB04_G08 (scFv, V domains shown, scFv in periplasmic extract) VH: EVQLLESGGGLVQPGGSLRLSCAASGFTGSDFYMEWVRQAPGKGLEWVAASRNKANDYTTEYADSVKGRFTISRDNSKNTLYLQMNSLRAEDTAVYYCARDYYGSSYWYFDVWGQGTLVTVSS VL: DIVMTQSPDSLAVSLGERATINCTASESLYSSKHKVHYLAWYQQKPGQPPKLLIYGASNRYQGVPDRFSGSGSGTDFTLTISSLQAEDVAVYYCAQFYWYPLTFGGGTKVEIK
		1.25	0.93	0.11	0.06	0.06	PcOxP_DB03_H09 (scFv, V domains shown, scFv in periplasmic extract) VH: EVQLLESGGGLVQPGGSLRLSCAASGFTFSDAYMEWVRQAPGKGLEWVAASRNKANSYTTEYADSVKGRFTISRDNSKNTLYLQMNSLRAEDTAVYYCARDYYGSSYWYFDVWGQGTLVTVSS VL: DIQMTQSPSSLSASVGDRVTITCTASESLYSSKHKVHYLAWYQQKPGKAPKLLIYGASNRYIGVPSRFSGSGSGTDFTLTISSLQPEDFATYYCAEFYSYPLTFGGGTKVEIK
0.05	0.06	0.87	0.58	0.1			PcOxP_DB04_F03 (scFv, V domains shown, scFv in periplasmic extract) VH: EVQLLESGGGLVQPGGSLRLSCAASGFTASDFYMEWVRQAPGKGLEWVAASRWKANDYTTEYADSVKGRFTISRDNSKNTLYLQMNSLRAEDTAVYYCARDIYGSSYWYFDVWGQGTLVTVSS VL: DIVMTQSPDSLAVSLGERATINCTASESLYSSKHKVHYLAWYQQKPGQPPKLLIYGASNRYIGVPDRFSGSGSGTDFTLTISSLQAEDVAVYYCAQFYSYPLTFGGGTKVEIK
		1.18	0.91	0.12	0.06	0.06	PcOxP_DB03_H08 (scFv, V domains shown, scFv in periplasmic extract) VH: EVQLLESGGGLVQPGGSLRLSCAASGGTFSDFYMEWVRQAPGKGLEWVAASRNKANTYTTEYADSVKGRFTISRDNSKNTLYLQMNSLRAEDTAVYYCARDYYGSSYWYFDVWGQGTLVTVSS VL: DIQMTQSPSSLSASVGDRVTITCTASESLYSSKHKVHYLAWYQQKPGKAPKLLIYGSSNRYIGVPSRFSGSGSGTDFTLTISSLQPEDFATYYCAQFYQYPLTFGGGTKVEIK
0.05	0.04	0.4	0.19	0.07			PcOxP_DB04_G03 (scFv, V domains shown, scFv in periplasmic extract) VH: EVQLLESGGGLVQPGGSLRLSCAASGFTTSDFYMEWVRQAPGKGLEWVAASRNKANDYTTEYADSVKGRFTISRDNSKNTLYLQMNSLRAEDTAVYYCARDYYGSSYWYFDYWGQGTLVTVSS VL: DIVMTQSPDSLAVSLGERATINCTASESLYSSKHKVHYLAWYQQKPGQPPKLLIYGASNRNIGVPDRFSGSGSGTDFTLTISSLQAEDVAVYYCAHFYSYPLTFGGGTKVEIK
		1.64	1.91	0.08	0.05	0.05	PcOxP_DB03_H07 (scFv, V domains shown, scFv in periplasmic extract) VH: EVQLLESGGGLVQPGGSLRLSCAASGFTFSDYYMEWVRQAPGKGLEWVAASRNKANDYTTEYADSVKGRFTISRDNSKNTLYLQMNSLRAEDTAVYYCARDYYGSSYWYFDVWGQGTLVTVSS VL: DIQMTQSPSSLSASVGDRVTITCTASESLYSSKHKVHYLAWYQQKPGKAPKLLIYGASNRDIGVPSRFSGSGSGTDFTLTISSLQPEDFATYYCGQFYSYPLTFGGGTKVEIK
		2.11	1.54	0.09	0.05	0.05	PcOxP_DB04_A07 (scFv, V domains shown, scFv in periplasmic extract) VH: EVQLLESGGGLVQPGGSLRLSCAASGFTQSDFYMEWVRQAPGKGLEWVAASRNKANDYTTEYADSVKGRFTISRDNSKNTLYLQMNSLRAEDTAVYYCARDYYGSSYWYFDVWGQGTLVTVSS VL: DIQMTQSPSSLSASVGDRVTITCTASESLYSSKHKVHYLAWYQQKPGKAPKLLIYGISNRYIGVPSRFSGSGSGTDFTLTISSLQPEDFATYYCAQFYSYPLTFGGGTKVEIK
0.05	0.06	0.97	0.76	0.07			PcOxP_DB04_F05 (scFv, V domains shown, scFv in periplasmic extract) VH: EVQLLESGGGLVQPGGSLRLSCAASGFTFSDYYMEWVRQAPGKGLEWVAASRNKANDYTTEYADSVKGRFTISRDNSKNTLYLQMNSLRAEDTAVYYCARDYYGSSYWYFDVWGQGTLVTVSS VL: DIVMTQSPDSLAVSLGERATINCTASESLYSSNHKVHYLAWYQQKPGQPPKLLIYGVSNRYIGVPDRFSGSGSGTDFTLTISSLQAEDVAVYYCAQFYSYPLTFGGGTKVEIK
